Measured values as given in patent publication US12427163B2, “Anti-VTCN1 antibodies and antibody drug conjugates” (Bluefin BioMedicine, Inc., priority 2017, dated 2025).
Residue numbers refer to the chain shown, from its start.

T1: VTCN1 IgV domain (Homo sapiens, UniProt Q7Z7D3)
T1 construct: one with an IgV domain only and one with an IgC domain only; expressed in transfected cells
T1 sequence (Q7Z7D3 35-146 limits assumed): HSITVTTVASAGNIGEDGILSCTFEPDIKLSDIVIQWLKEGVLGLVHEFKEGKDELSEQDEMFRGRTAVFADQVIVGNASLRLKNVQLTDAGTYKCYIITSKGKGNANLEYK

T2: 293-VTCN1 cells (Homo sapiens, UniProt Q7Z7D3)
T2 construct: 293-VTCN1 (full length); expressed in transfected cells; host or cells: HEK293
T2 sequence (Q7Z7D3 25-282): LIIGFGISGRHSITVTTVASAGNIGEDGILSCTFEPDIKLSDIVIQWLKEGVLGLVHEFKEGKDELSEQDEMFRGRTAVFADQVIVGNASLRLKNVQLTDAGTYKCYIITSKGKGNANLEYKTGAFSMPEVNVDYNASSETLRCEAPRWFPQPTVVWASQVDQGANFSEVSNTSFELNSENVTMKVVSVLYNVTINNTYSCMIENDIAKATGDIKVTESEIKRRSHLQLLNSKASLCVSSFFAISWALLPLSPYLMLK

T3: VTCN1 IgC domain (Homo sapiens, UniProt Q7Z7D3)
T3 construct: one with an IgV domain only and one with an IgC domain only; expressed in transfected cells
T3 sequence (Q7Z7D3 153-241 limits assumed): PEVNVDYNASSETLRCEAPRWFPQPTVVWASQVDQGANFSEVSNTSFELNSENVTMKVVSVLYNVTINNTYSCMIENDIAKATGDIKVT

T4: 293-VTCN1 (mouse) (Mus musculus, UniProt Q7TSP5)
T4 construct: expressed in transfected cells
T4 sequence (Q7TSP5 25-257): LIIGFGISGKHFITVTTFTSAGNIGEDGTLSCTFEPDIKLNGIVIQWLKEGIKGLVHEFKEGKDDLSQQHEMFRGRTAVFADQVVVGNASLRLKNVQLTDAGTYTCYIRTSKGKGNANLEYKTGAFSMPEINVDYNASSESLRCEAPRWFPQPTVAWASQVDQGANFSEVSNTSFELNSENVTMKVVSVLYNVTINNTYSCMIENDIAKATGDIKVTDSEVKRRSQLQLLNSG

T5: human VTCN1 protein (Homo sapiens, UniProt Q7Z7D3)
T5 construct: His
T5 sequence (Q7Z7D3 25-282): T2 sequence (Q7Z7D3 25-282)

T6: mouse VTCN1 protein (Mus musculus, UniProt Q7TSP5)
T6 construct: His
T6 sequence (Q7TSP5 25-257): T4 sequence (Q7TSP5 25-257)

T7: 293 cells expressing recombinant human VTCN1 (Homo sapiens, UniProt Q7Z7D3)
T7 construct: expressed in transfected cells; host or cells: 293 cells
T7 sequence (Q7Z7D3 25-282): T2 sequence (Q7Z7D3 25-282)

B1: 7C8: fully human VTCN1 antibody; VH SEQ ID NO: 212, VL SEQ ID NO: 216 (antibody, V domains shown)
VH: QVQLQESGPGLVKPSETLSLTCAVSGYSISSGYYWGWIRQPPGKGLEWIGSIYHSGTTYYNPSLKSRVTISVDTSKNQFSLKLNSVTAADTAVYYCATYSSGWYFYFDYWGQGTLVTVSS
VL: DIQLTQSPSFLSASVGDRVTITCRASQGISSYLAWYQQKPGKAPKLLIYVASTLQSGVPSRFSGSGSGTEFTLTISSLQPEDFATYYCQQLNSYPITFGQGTRLEIK
B2: 4C7_63A1: fully human VTCN1 antibody; VH SEQ ID NO: 248, VL SEQ ID NO: 252 (antibody, V domains shown)
VH: QVQLQESGPGLVKPSGTLSLTCAVSGGSISSSNWWSWVRQPPGKGLEAIGEIYHSGNTNYNPSLKSRVTISVDKSKNQFSLKLSSVTAADTAIYYCARDGYSSGWYWGYFDYWGQGTLVTVSS
VL: EIVMTQSPATLSVSPGERATLSCRASQSVNSNLAWYQQKPGQAPWLLIYGASTRATGIPARFSGSGSGTEFTLTISSLQSEDFAVYYCQQYNHWPYTFGQGTKLEIK
B3: 14D6_60B5: fully human VTCN1 antibody; VH SEQ ID NO: 278, VL SEQ ID NO: 281 (antibody, V domains shown)
VH: QVQLVHSGAEVKRPGSSVKVSCKASGGTFSSYAISWVRQAPGQGLEWMGGIIPIFGIANYAQKFQGRVTIIADKSTRTAYMELSSLRSEDTAVYYCARGGPYFDYWGQGILVTVSS
VL: B2 VL with N30S, W45R, H93K, Y96F, Q100P, L104V, E105D
B4: 16H12_60B4: fully human VTCN1 antibody; VH SEQ ID NO: 283, VL SEQ ID NO: 286 (antibody, V domains shown)
VH: B3 VH with L4V, H6Q, R13K, G27D, S31N, A58T, A97S
VL: B2 VL with N30S, W45R, N92K, H93K, Y96F, Q100P, L104V, E105D
B5: IFNγ: cytokine added to human monocyte cultures (protein, UniProt P01579 24-161, looked up)
Interferon gamma: QDPYVKEAENLKKYFNAGHSDVADNGTLFLGILKNWKEESDRKIMQSQIVSFYFKLFKNFKDDQSIQKSVETIKEDMNVKFFNSNKKKRDDFEKLTNYSVTDLNVQRKAIHELIQVMAELSPAAKTGKRKRSQMLFRG
B6: 12B5_44B1: fully human VTCN1 antibody; VH SEQ ID NO: 264, VL SEQ ID NO: 268 (antibody, V domains shown)
VH: QVQLVQSGAEVKKPGSSMKVSCKASGDTFSSYAISWVRQAPGQGLEWMAGIIPVFGTAHNAQKFQGRVTITADKSTSTAYMELSSLRSEDTAVYYCTRGGPYFDYWGQGTLVTVSS
VL: EIVMTQSPATLSVSPGERAALSCRASQSVSSNLAWYQQKPGQAPRLLIYGVSTRATGIPDRFNGSGSGTEFTLTISSLQSEDFGAYYCQQYKKWPFIFGPGTKLEIK

Assays:
VTCN1 IgV domain = molecular target: T1, VTCN1 IgV domain; test: Flow cytometry binding to 293-VTCN1-IgV domain cells; details: IgV domain only
Text: (§1) Two constructs were made, one with an IgV domain only and one with an IgC domain only. 293 cells were transfected with VTCN1-IgV and VTCN1-IgC constructs, and stable cell lines of 293 expressing VTCN1-IgV or VTCN1-IgC domains were made. Expression constructs also made to express VTCN1 (monkey, 99% identical to human VTCN1) and VTCN1 (mouse, 88% identical to human VTCN1), stable 293-VTCN1 (monkey), and 293-VTCN1 (mouse) cell lines made by transfecting these constructs.
(§2) Briefly, the 7C8 antibody was incubated with 293 cells, 293-VTCN1 (full length), 293-VTCN1-IgV domain, 293-VTCN1-IgC domain cell lines for 30 min at 4° C., unbound antibody was washed away, cells were then incubated with anti-human-Alexa488 conjugate, and analyzed by flow cytometry.
(§3) It was also assessed whether these antibodies bind to IgV or IgC domain of VTCN1 protein, using 293-VTCN1-IgV domain expressing cells and 293-VTCN1-IgC domain expressing cells using FACS analysis, as in Example 3.

293-VTCN1 (monkey) = test: Flow cytometry binding to 293-VTCN1 (monkey) cells; design: species or system cynomolgus monkey
Text: as §1
(§4) Flow cytometry analysis was also performed with 7C8 binding to 293-VTCN1 (monkey) and 293-VTCN1 (mouse).

293-VTCN1 cells = molecular target: T2, 293-VTCN1 cells; test: Flow cytometry binding to 293-VTCN1 cells (full length)
Experimental: For each hybridoma, unique recombinant heavy chains were paired with unique recombinant light chains. These plasmid pairs were transfected into CHO cells in 24-well plates. Twelve days later conditioned medium from each pairing was subjected to concentration determination by OCTET™ and screened by Flow cytometric analysis for binding to 293-VTCN1 cells.
as §2
Antibody concentration was determined by OCTET™ using protein G biosensor. 0.05 μg/ml, 0.1 μg/ml, 0.5 μg/ml, 1 μg/ml, 5 μg/ml, 10 μg/ml antibodies were incubated with live cells for 30 min. on ice, unbound antibodies were washed off, and a conjugated anti-mouse 2nd antibody was added to the wells for 15 min. Cells were washed twice with flow buffer and analyzed using MACSQuant Analyzer 10 flow cytometer (Miltenyi Biotec, Bergisch Gladbach, Germany). Results from flow cytometry assays indicate that mouse anti-VTCN1 antibodies are capable of binding to 293-VTCN1 cells and MX-1 cells.

VTCN1 IgC domain = molecular target: T3, VTCN1 IgC domain; test: Flow cytometry binding to 293-VTCN1-IgC domain cells; details: IgC domain only
Text: as §1, §2, §3

MX-1 cells = test: Flow cytometry binding to MX-1 cells; design: species or system human; details: TNBC cell line
Experimental: (§5) Supernatant from hybridoma wells, containing VTCN1 specific antibodies, were re-tested on human breast cell lines SKBR3 and ZR-75-1. 70% confluent MX-1 cells in 10 cm dish were gently washed with 1× cold PBS once, 7 ml cold flow buffer (1×PBS, 0.5% BSA, 2 mM EDTA) was then added, the cells were gently scraped in to flow buffer using rubber cell lifter, pipet up down with 10 ml transfer pipets gently to resuspend the cells. The cells were pelleted by centrifuging them for 5 minutes at 1200 rpm at room temperature. The cell pellets were resuspended in cold flow buffer, the cells were counted and the concentration was adjusted to 1×10^6 cells per 1 mL. Using a multichannel pipette, 200 μL was collected and transferred to 96-V bottom polypropylene plates and spun at 1250 rpm for 5 min at 4° C. to pellet the cells. The cell pellets were resuspended with hybridoma supernatant diluted 2-fold with cold flow buffer and incubated at 4° C. for 30 min. After incubation, cells were washed 2× with flow buffer and then labeled with anti-rat Alexa 647 secondary antibodies for 30 min at 4° C. Unbound secondary antibodies were removed by washing the cells 2× with flow buffer. […]
Antibody concentration was determined by OCTET™ using protein G biosensor. […] Cells were washed twice with flow buffer and analyzed using MACSQuant Analyzer 10 flow cytometer (Miltenyi Biotec, Bergisch Gladbach, Germany). […]

SKBR3 cells = test: Flow cytometry binding to SKBR3 cells (hybridoma screening); design: species or system human
Experimental: as §5, with “buffer. Cells were then resuspended in 200 μL of flow buffer containing PI to identify dead cells and remove from analysis.” for “buffer.”

293-VTCN1 (mouse) = molecular target: T4, 293-VTCN1 (mouse); test: Flow cytometry binding to 293-VTCN1 (mouse) cells
Text: as §1, §4

ZR-75-1 cells = test: Flow cytometry binding to ZR-75-1 cells; design: species or system human
Experimental: as §5, with “buffer. Cells were then resuspended in 200 μL of flow buffer containing PI to identify dead cells and remove from analysis.” for “buffer.”

human VTCN1 protein = molecular target: T5, human VTCN1 protein; test: Affinity to recombinant VTCN1-his by OCTET Red (Protein A biosensors); type: binding; details: Table 12
Experimental: (§6) The affinity of antibodies to recombinant VTCN1 was determined on an OCTET™ Red (Pall, ForteBio) instrument. After loading reagents into a 96-well plate, the OCTET™ Red with Protein A-conjugated biosensors was programmed as follows: 30 seconds for baseline #1; 45 seconds to immobilize the antibody; 30 seconds for baseline #2; 300 seconds for association of antibody to recombinant VTCN1-his; and 300 seconds for dissociation of recombinant VTCN1-his from the antibody. Table 5 lists the affinity measured for selected antibodies.

[1] = system: cynomolgus monkey VTCN1 protein; test: Affinity by OCTET, cynomolgus monkey VTCN1; type: binding; details: Table 12
Experimental: as §6, with “antibody.” for “antibody. Table 5 lists the affinity measured for selected antibodies.”

mouse VTCN1 protein = molecular target: T6, mouse VTCN1 protein; test: Affinity by OCTET, mouse VTCN1; type: binding; details: Table 12
Experimental: as §6

[2] = molecular target: T7, 293 cells expressing recombinant human VTCN1; test: Cell-based competition binding FACS assay against 6D9; details: 6D9 10 μg/ml, human antibody 1 μg/ml
Experimental: To assess if these human VTCN1 antibodies bind to same or different regions of VTCN1 protein, a cell-based competition binding FACS assay was performed. […] The cells were then resuspend in FACS buffer with DAPI, and analyzed by flow cytometry.

human monocytes = test: Cytokine treatment of monocytes, expression of VTCN1, PD-L1, CD80 by flow cytometry; type: cell-based; details: 24, 48, or 73 hours
Experimental: VTCN1 is expressed in monocytes and macrophages in a tumor microenviroment, the expression induced by cytokines in tumor microenviroment. VTCN1 positive macrophages inhibit T cell activation. Monocytes from healthy donors were treated with IFNγ and IL-6 to assess VTCN1 expression. Monocytes were enriched from fresh PBMC from healthy donor using a monocyte enrichment kit from Stemcell Technologies, and the purity of the obtained monocytes is greater than 95%. Monocytes were cultured in 24 well plate with different concentration of INFγ or LI-6 for 24, 48, or 73 hours, expression of VTCN1, PD-L1, and CD80 was assessed by flow cytometry. […] CD80 was expressed at low level in monocytes, and is not very responsive to cytokine treatment.

Row | Molecule | binding to IgV domain of VTCN1 (VTCN1 IgV domain) | cross reactivity with monkey VTCN1 (293-VTCN1 (monkey)) | binding to 293-VTCN1 cells (full length VTCN1) (293-VTCN1 cells) | binding to IgC domain of VTCN1 (VTCN1 IgC domain) | binding to MX-1 cells (MX-1 cells) | binding to SKBR3 cells (SKBR3 cells) | cross reactivity with mouse VTCN1 (293-VTCN1 (mouse)) | binding to ZR-75-1 cells (ZR-75-1 cells) | Human K(off) (human VTCN1 protein) | Human k(on) (human VTCN1 protein) | cynomolgus monkey k(off) [1] | cynomolgus monkey k(on) [1] | mouse k(off) (mouse VTCN1 protein) | mouse k(on) (mouse VTCN1 protein) | competition with 6D9 for binding to VTCN1 [2] | VTCN1 and PD-L1 expression in monocytes (human monocytes)
1 | B1 | does not bind | cross reacts | binds to full length VTCN1 | does not bind | binds | binds | cross reacts | binds |  |  |  |  |  |  |  | 
2 | B2 |  |  |  |  |  |  |  |  | 5.81E−03 | 1.19E+05 | 5.80E−03 | 1.23E+05 | 4.01E−03 | 9.07E+04 | compete with 6D9 | 
3 | B3 |  |  |  |  |  |  |  |  | 6.29E−04 | 1.32E+05 | 6.91E−04 | 1.32E+05 | 6.47E−03 | 1.15E+05 | do not compete with 6D9 | 
4 | B4 |  |  |  |  |  |  |  |  | 1.95E−04 | 2.62E+05 | 2.40E−04 | 2.45E+05 | 3.76E−03 | 1.37E+05 | do not compete with 6D9 | 
5 | B5 |  |  |  |  |  |  |  |  |  |  |  |  |  |  |  | VTCN1 and PD-L1 expression was induced
6 | B6 |  |  |  |  |  |  |  |  | 3.54E−04 | 1.61E+05 | 3.74E−04 | 1.80E+05 | 8.11E−03 | 2.15E+05 | do not compete with 6D9 | 
